Target: recombinant FcRn protein (Homo sapiens (Human)) (UniProt P55899)
Assay: BLI (Octet): antibody on anti-CH1 biosensors, recombinant FcRn at pH 6.0; fold change against wild type Motavizumab (p-1342)

Chain of recombinant FcRn protein (Homo sapiens (Human)) (P55899 24-297 limits assumed, chain 1 of 2): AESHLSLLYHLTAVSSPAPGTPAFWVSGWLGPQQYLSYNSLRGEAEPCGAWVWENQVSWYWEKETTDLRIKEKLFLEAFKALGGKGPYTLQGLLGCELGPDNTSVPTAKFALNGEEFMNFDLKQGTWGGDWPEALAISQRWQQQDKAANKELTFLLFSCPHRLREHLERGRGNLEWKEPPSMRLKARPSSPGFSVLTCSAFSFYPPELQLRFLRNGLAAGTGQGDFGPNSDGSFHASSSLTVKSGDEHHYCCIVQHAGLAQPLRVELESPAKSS
Chain of recombinant FcRn protein (Homo sapiens (Human)) (beta, as listed by the source limits assumed, chain 2 of 2): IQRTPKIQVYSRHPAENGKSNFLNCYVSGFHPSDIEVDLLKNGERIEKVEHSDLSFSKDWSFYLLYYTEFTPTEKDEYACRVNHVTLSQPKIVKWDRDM

## LS (antibody)
  Kd (fold increase): 9.3 fold
  koff (fold decrease): 3.7 fold
  kon (fold increase): 2.5 fold
